Results reported in patent publication US20250027955A1, “ETHYLENE RECEPTORS AND BINDING DOMAINS WITH MODIFIED BINDING KINETICS FOR ETHYLENE” (Trustees of Dartmouth College, priority 2022, published 2025).
Numbering of substitutions follows the chain as printed. Names may count otherwise. Like-named read-outs stand apart in the source and are kept apart here.

Key:
[1] = tested on: dark-grown Arabidopsis seedlings; experiment: Silver sensitivity assay: effect of silver on ethylene response of dark-grown seedlings; assay type: in vivo
Source text: As an initial test for the feasibility of the first hypothesis, Applicant asked if ETR1^D25N could still bind a metal cofactor, and therefore potentially ethylene, in planta. For this purpose, Applicant examined the effects of silver (Ag) on ethylene sensitivity. Silver is thought to substitute for the copper cofactor and, although receptors containing silver can still bind ethylene, they no longer transmit the signal, resulting in ethylene insensitivity.

[2] = tested on: Arabidopsis seedlings, etr1 etr2 ein4 background; conditions: previously reported; cited from earlier work
[3] = tested on: OSR1, ERF1, EXP5 and EXPb1 expression; experiment: Ethylene-dependent gene expression by RT-qPCR; assay type: in vivo, Arabidopsis; conditions: 0 or 1 μL L^−1 ethylene for 2 hr
Protocol: To examine the short-term molecular response, Applicant characterized ethylene-dependent gene expression for the ETR1 Asp25 mutants (FIG. 6B). Expression of OSR1 and ERF1 is induced, whereas the expression of EXP5 and EXPb1 is repressed, in response to ethylene.
RNA isolation and RT-qPCR was performed with three biological replicates and two technical replicates of each.

[4] = Copper binding assay: purified ETR1 transmembrane domain titrated to BCA2-Cu(I) complex, absorbance at 562 nm; conditions: ETR1-TMD expressed and purified from E. coli; Cu(I) stabilized by BCA
Source text: Cu(I) was stabilized by the copper chelator BCA, and then titrated with increasing ETR1 protein concentration.
Titration curves were corrected for nonspecific binding observed with chemically and thermally denatured receptor to maximize signal to background levels.

[5] = tested on: Arabidopsis seedlings, etr1 etr2 ein4 background; experiment: Short-term kinetic analysis of hypocotyl growth response to ethylene; assay type: in vivo; conditions: 10 μL/L ethylene for 2 hr
Protocol: Based on the differences Applicant uncovered for the long-term ethylene growth responses for the Asp25 mutants, Applicant also analyzed their short-term hypocotyl growth and molecular responses to ethylene. To this end, Applicant performed a short-term kinetic analysis, analyzing the initial hypocotyl growth inhibition in response to 10 μL/L ethylene and the growth recovery following the removal of ethylene after two hours of treatment (FIG. 6A).
(§1) All Arabidopsis lines were of the Columbia (Col-0) accession. The etr1-1 and etr1-6 etr2-3 ein4-4 mutant lines have been described. Analysis of the triple response of dark-grown Arabidopsis seedlings to ethylene was performed as described previously. Briefly, seedlings were grown at 22° C. on vertically oriented plates on half-strength Murashige and Skoog basal medium with Gamborg's vitamins (pH 5.75; Sigma), 0.8% (w/v) agar, and 5 μM aminoethoxyvinylglycine (AVG) to inhibit ethylene biosynthesis. The stratified seed was exposed to light for 8 hr and then moved to the dark in the presence or absence of ethylene, with analysis of the seedling growth being performed following 4 days total growth. For short-term kinetic analysis of dark-grown seedlings, time-lapse imaging and growth rate analysis of hypocotyls were carried out as described previously.

[6] = Saturable [14C]ethylene binding to yeast transgenically expressing ETR1; set-up: species or system Saccharomyces cerevisiae; conditions: 0.21 μL L^−1 [14C]ethylene; for saturable [14C]ethylene binding: with or without excess [12C]ethylene; for ethylene binding relative to ETR1^wt: % of wild-type binding
Source text: Saturable ethylene binding of the ETR1 Asp25 mutants was examined by heterologous expression in yeast, with binding to [^14C]ethylene determined in the presence or absence of excess [^12C]ethylene (FIG. 2C). […] This included the ETR1^D25A mutant, consistent with previous observations, as well as for the ETR1^D25N and ETR1^D25Q mutants (FIG. 2C). Results from the ethylene binding assay are therefore consistent with the negative charge at D25 playing a significant role in mediating high-affinity ethylene binding.
[^14C]ethylene (specific activity=116 mCi/mmol) was obtained from ViTrax Radiochemicals (Placentia, CA) and trapped as the mercuric perchlorate complex as described. For ethylene binding assays in yeast, ETR1 was expressed in the yeast Saccharomyces cerevisiae (strain FY834) using the vector pYcDE-2 and a constitutive ADC1 promoter. The yeast growth media was supplemented with 40 μg L^−1 copper sulfate. Saturable ethylene binding to yeast was determined by analyzing binding of 0.3 g yeast per sample to 0.21 μL L^−1 [^14C]ethylene, in the presence or absence of excess [^12C]ethylene.

[7] = previously reported, cited from earlier work
[8] = tested on: Arabidopsis seedlings, etr1 etr2 ein4 background; experiment: Triple-response hypocotyl growth assay of dark-grown seedlings expressing ETR1 transgenes; assay type: in vivo; conditions: for rescue of growth of etr1 etr2 ein4 triple mutant in air: absence of ethylene, hypocotyl and adult shoot growth; for hypocotyl growth response to ethylene: dark-grown seedlings, 0 or 1 μL L^−1 ethylene
Protocol: Functionality of the ETR1 Asp25 mutants was tested by transgenic expression in the etr1 etr2 ein4 Arabidopsis background.
Applicant can thus exploit the triple mutant to assess the ability of the ETR1 transgenes to rescue growth in the absence of ethylene as well as their ability to mediate a response to ethylene. Such an analysis indicates whether the encoded receptors are able to assume the ‘on’ conformation that represses the ethylene response in air, as well as the ‘off’ conformation that occurs in response to ethylene binding.
as §1

Molecule: [Ag] [silver, reference compound]
- effect of silver on ethylene response of etr1 etr2 ein4 triple mutant ([1]; etr1 etr2 ein4, 10 μL/L ethylene): still responsive to ethylene
- effect of silver on ethylene response of wild-type seedlings ([1]; wild-type, 10 μL/L ethylene): blocked

B1: ETR1^D25A: ETR1 with site-directed mutation of Asp25 to Ala (protein, UniProt P49333 1-738, looked up, variant D25A)
Ethylene receptor 1: MEVCNCIEPQWPADELLMKYQYISAFFIAIAYFSIPLELIYFVKKSAVFPYRWVLVQFGAFIVLCGATHLINLWTFTTHSRTVALVMTTAKVLTAVVSCATALMLVHIIPDLLSVKTRELFLKNKAAELDREMGLIRTQEETGRHVRMLTHEIRSTLDRHTILKTTLVELGRTLALEECALWMPTRTGLELQLSYTLRHQHPVEYTVPIQLPVINQVFGTSRAVKISPNSPVARLRPVSGKYMLGEVVAVRVPLLHLSNFQINDWPELSTKRYALMVLMLPSDSARQWHVHELELVEVVADQVAVALSHAAILEESMRARDLLMEQNVALDLARREAETAIRARNDFLAVMNHEMRTPMHAIIALSSLLQETELTPEQRLMVETILKSSNLLATLMNDVLDLSRLEDGSLQLELGTFNLHTLFREVLNLIKPIAVVKKLPITLNLAPDLPEFVVGDEKRLMQIILNIVGNAVKFSKQGSISVTALVTKSDTRAADFFVVPTGSHFYLRVKVKDSGAGINPQDIPKIFTKFAQTQSLATRSSGGSGLGLAISKRFVNLMEGNIWIESDGLGKGCTAIFDVKLGISERSNESKQSGIPKVPAIPRHSNFTGLKVLVMDENGVSRMVTKGLLVHLGCEVTTVSSNEECLRVVSHEHKVVFMDVCMPGVENYQIALRIHEKFTKQRHQRPLLVALSGNTDKSTKEKCMSFGLDGVLLKPVSLDNIRDVLSDLLEPRVLYEGM
- ethylene sensitivity of plants (previous studies) [2]: confers dominant ethylene-insensitivity
- molecular response to ethylene (ethylene-dependent gene expression) [3]: various levels of hyposensitivity
- copper binding [4]: no copper binding
- short-term hypocotyl growth response to ethylene [5]: exhibit ethylene insensitivity
- saturable [14C]ethylene binding [6]: No saturable [^14C]ethylene binding was detected
- ethylene binding (previous studies) [7]: eliminate ethylene binding
- ethylene binding (previous studies) ([7]; listed as D25A): abolishes ethylene binding
- rescue of growth of etr1 etr2 ein4 triple mutant in air [8]: rescued growth
- hypocotyl growth response to ethylene [8]: conferred ethylene insensitivity

B2: ETR1^K91A: ETR1 with Lys91 replaced by smaller nonpolar sidechain (Ala) (protein, UniProt P49333 1-738, looked up, variant K91A)
Ethylene receptor 1: B1 Ethylene receptor 1 with A25D, K91A
- ethylene sensitivity of plants (previous studies) [2]: confer ethylene insensitivity
- ethylene binding relative to ETR1^wt [6]: 1%
- ethylene binding (previous studies) [7]: low level of ethylene binding ability
- hypocotyl growth response to ethylene [8]: a phenotype similar to that of the ETR1^K91M mutant or complete ethylene insensitivity

B3: ETR1^D25E: ETR1 with Asp25 replaced by Glu (protein, UniProt P49333 1-738, looked up, variant D25E)
Ethylene receptor 1: B1 Ethylene receptor 1 with A25E
- molecular response to ethylene (ethylene-dependent gene expression) [3]: various levels of hyposensitivity
- copper binding [4]: minimal residual binding
- short-term hypocotyl growth response to ethylene [5]: exhibit ethylene insensitivity
- saturable [14C]ethylene binding [6]: substantially reduced
- rescue of growth of etr1 etr2 ein4 triple mutant in air [8]: rescued growth
- hypocotyl growth response to ethylene [8]: conferred ethylene insensitivity

B4: ETR1^K91R: ETR1 with basic Lys91 replaced by Arg (protein, UniProt P49333 1-738, looked up, variant K91R)
Ethylene receptor 1: B1 Ethylene receptor 1 with A25D, K91R
- ethylene binding relative to ETR1^wt [6]: 63%
- hypocotyl growth response to ethylene [8]: conferred ethylene hyposensitivity

B5: ETR1^D25N,K91A: ETR1 combining Asp25Asn with K91A (protein, UniProt P49333 1-738, looked up, variant D25N K91A)
Ethylene receptor 1: B1 Ethylene receptor 1 with A25N, K91A
- hypocotyl growth response to ethylene [8]: all ethylene insensitive

B6: ETR1^D25N,K91R: ETR1 combining Asp25Asn with K91R (protein, UniProt P49333 1-738, looked up, variant D25N K91R)
Ethylene receptor 1: B1 Ethylene receptor 1 with A25N, K91R
- hypocotyl growth response to ethylene [8]: more insensitive to ethylene than the ETR1^K91R mutant

B7: ETR1^K91M: ETR1 with Lys91 replaced by a nonpolar sidechain of similar size (Met) (protein, UniProt P49333 1-738, looked up, variant K91M)
Ethylene receptor 1: B1 Ethylene receptor 1 with A25D, K91M
- ethylene binding relative to ETR1^wt [6]: approximately 6%
- rescue of growth of etr1 etr2 ein4 triple mutant in air [8]: failed to rescue seedling growth efficiently
- hypocotyl growth response to ethylene [8]: partial ethylene hyposensitivity

B8: ETR1^D25Q: ETR1 with Asp25 replaced by Gln (protein, UniProt P49333 1-738, looked up, variant D25Q)
Ethylene receptor 1: B1 Ethylene receptor 1 with A25Q
- molecular response to ethylene (ethylene-dependent gene expression) [3]: various levels of hyposensitivity
- copper binding [4]: minimal residual binding
- short-term hypocotyl growth response to ethylene [5]: exhibit ethylene insensitivity
- saturable [14C]ethylene binding [6]: No saturable [^14C]ethylene binding was detected
- rescue of growth of etr1 etr2 ein4 triple mutant in air [8]: rescued growth
- hypocotyl growth response to ethylene [8]: conferred ethylene insensitivity

B9: ETR1^D25N,K91M: ETR1 combining Asp25Asn with K91M (protein, UniProt P49333 1-738, looked up, variant D25N K91M)
Ethylene receptor 1: B1 Ethylene receptor 1 with A25N, K91M
- hypocotyl growth response to ethylene [8]: further reduction in the ability to rescue seedling growth and respond to ethylene
